Data published in US5668107A, “Compositions and methods for inhibiting elastase” (The UAB Research Foundation, priority 1995, dated 1997).
One block for each molecule: values may come before it. Where no end group is shown, it is not given here.

Columns and labels:
[1] = target: T1, HNE (human neutrophil elastase) (Homo sapiens, UniProt P08246); experiment: Serine protease assay with p-nitroanilide substrate, HNE; assay type: biochemical
T1 sequence (P08246 30-267): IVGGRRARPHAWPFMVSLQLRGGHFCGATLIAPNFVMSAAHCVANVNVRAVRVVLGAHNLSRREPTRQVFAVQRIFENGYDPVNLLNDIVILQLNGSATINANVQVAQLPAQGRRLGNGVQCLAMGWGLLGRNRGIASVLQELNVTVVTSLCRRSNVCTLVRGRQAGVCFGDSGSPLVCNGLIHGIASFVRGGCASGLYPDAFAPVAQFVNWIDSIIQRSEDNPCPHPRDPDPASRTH
Protocol: (§1) Serine protease assays were performed using p-nitroanalide amide substrates. Trypsin activity was assayed by using Benzyl-PHE-VAL-ARG-PNA (0.5 mg/ml). Chymotrypsin activity was assayed by using SUC-(ALA)2 -PRO-PHE-PNA (SEQ ID NO:5) (10 mg/ml in DMSO). Elastase activity was assayed by using SUC-(ALA)3 -PNA (10 mg/ml in DMSO). The dilution of each of these enzymes required to produce a change in absorbance of approximately 0.4 after a 15 min incubation at 37° C. was initially determined. The complete reaction mixture contained 10 μls of this enzyme dilution plus 100 μls of the appropriate above substrate and 0-50 uls of the indicated concentration of inhibitor or TBS to maintain constant volume. Trypsin, chymotrypsin, and HNE assays were incubated at 37° C. for 15 min, while pancreatic elastase assays were incubated at 37° C. for 1.5 min. The reaction was terminated by the addition of a sufficient quantity of ice cold TBS to bring each assay up to a final volume of 1 ml. The absorbance of the p-nitroaniline produced was measured against a distilled water blank at 410 nm on a Hitachi model 100-40 spectrophotometer. Percent inhibition was calculated as: 100-[(A1 E+I/A1 E)×100].

Chymotrypsin [2] = target: Chymotrypsin (Bos taurus, UniProt P00766); experiment: Serine protease assay with p-nitroanilide substrate, chymotrypsin; assay type: biochemical
Protocol: as §1

Pancreatic elastase = Pancreatic elastase (Homo sapiens, UniProt Q9UNI1); experiment: Serine protease assay with p-nitroanilide substrate, pancreatic elastase; assay type: biochemical; settings: FIG. 2, preliminary enzyme kinetic experiments, desalted SPAAT preparations
Chain of Pancreatic elastase (Q9UNI1 19-258): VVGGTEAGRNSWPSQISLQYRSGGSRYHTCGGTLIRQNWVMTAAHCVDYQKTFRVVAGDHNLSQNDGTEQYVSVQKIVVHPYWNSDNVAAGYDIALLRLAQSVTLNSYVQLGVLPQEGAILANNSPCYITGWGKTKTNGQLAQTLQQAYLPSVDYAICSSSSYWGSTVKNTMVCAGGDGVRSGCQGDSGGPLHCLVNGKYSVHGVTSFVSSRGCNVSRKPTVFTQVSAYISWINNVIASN
Protocol: as §1

Trypsin = target: T2, Trypsin (Bos taurus, UniProt P00760); experiment: Serine protease assay with p-nitroanilide substrate, trypsin; assay type: biochemical; settings: FIG. 2, preliminary enzyme kinetic experiments, desalted SPAAT preparations
T2 construct: gene PRSS1
T2 sequence (P00760 24-246): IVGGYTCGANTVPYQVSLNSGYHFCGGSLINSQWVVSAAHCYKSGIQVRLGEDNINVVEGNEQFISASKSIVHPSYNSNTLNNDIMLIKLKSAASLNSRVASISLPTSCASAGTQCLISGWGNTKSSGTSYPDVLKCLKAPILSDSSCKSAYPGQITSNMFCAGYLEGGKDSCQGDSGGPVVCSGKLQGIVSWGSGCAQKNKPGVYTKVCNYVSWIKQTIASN
Protocol: as §1

[3] = target: T3, DFP-treated human neutrophil elastase (Homo sapiens, UniProt P08246); experiment: ELISA binding to DFP-treated HNE; settings: FIG. 3A, 10 μg/ml, corrected for non-specific binding to BSA
T3 sequence (P08246 30-247 limits assumed): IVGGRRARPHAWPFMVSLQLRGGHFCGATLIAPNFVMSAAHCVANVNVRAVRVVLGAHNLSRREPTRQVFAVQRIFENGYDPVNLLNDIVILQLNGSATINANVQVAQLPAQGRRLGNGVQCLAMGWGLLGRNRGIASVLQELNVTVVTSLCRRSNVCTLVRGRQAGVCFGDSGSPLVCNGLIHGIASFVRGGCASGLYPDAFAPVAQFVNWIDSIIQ
Protocol: (§2) Plastic microtiter wells were coated overnight at 4° C. with 100 μls of antigens appropriately diluted in PBS. Plates were washed 3× with approximately 300 μls PBS/well. Any remaining reactive sites were blocked by adding 200 μls 1% BSA in PBS/well and incubating for 1 hr at 37° C. The plates were again washed 3× with approximately 300 μls PBS/well. The rabbit anti-human AAT and HSA polyclonal antibodies were diluted 1/40,000 with PBS containing 0.05% Tween-20. 50 μls of this diluted primary antibody was added/appropriate well. The plate was again incubated for 1 hr at 37° C., then washed 3× with approximately 300 μls PBS/well. 50 μls of an appropriately diluted secondary antibody (goat anti-rabbit IgG diluted 1/16,000) was added/well. The plates were again incubated for 1 hr at 37° C., then washed 5× with approximately 300 μls PBS/well. 50 μls of color developing ortho-phenylenediamine (OPD) solution was added/well. The plates were incubated for 30 min at 37° C. The reaction was finally stopped by the addition of 50 μls/well of 4.5M sulfuric acid and read at 492 nm.
(§3) An ELISA was also developed to quantitate the potential binding affinity of various antigens for AAT (SEQ ID NO:1) and/or SPAAT (SEQ ID NO:4). […]

[4] = target: T4, DFP-treated human neutrophil cathepsin G (Homo sapiens, UniProt P08311); experiment: ELISA binding to DFP-treated cathepsin G; settings: FIG. 3B, 10 μg/ml, corrected for non-specific binding to BSA
T4 sequence (P08311 21-243 limits assumed): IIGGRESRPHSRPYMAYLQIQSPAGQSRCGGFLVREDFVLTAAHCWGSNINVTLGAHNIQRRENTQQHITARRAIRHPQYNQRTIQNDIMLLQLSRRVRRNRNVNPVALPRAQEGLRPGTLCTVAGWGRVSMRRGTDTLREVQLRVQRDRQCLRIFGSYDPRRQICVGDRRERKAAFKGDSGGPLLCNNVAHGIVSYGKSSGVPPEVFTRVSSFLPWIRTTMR
Protocol: as §2, §3

[5] = target: human neutrophil elastase (active enzyme) (human) (UniProt P08246)
Chymotrypsin [6] = experiment: enzyme inhibition kinetics with chymotrypsin, p-nitroanilide substrate
[7] = FIG. 2, preliminary enzyme kinetic experiments, desalted SPAAT preparations

Molecule: SPAAT: 44-residue C-terminal fragment of α1 antitrypsin (MET-351 to LYS-394); desalted preparations isolated from human placenta (MFLEAIPMSIPPQVKFNKPFVFLMIEQNTKSPLFMGKVVNPTQK)
inhibition of chymotrypsin (rank order of inhibition) (Chymotrypsin [2]; [7]): chymotrypsin>HNE>pancreatic elastase
KI relative to Km, competitive inhibitor of chymotrypsin (Chymotrypsin [2]; preliminary calculations from inhibitor concentrations required to totally inhibit chymotrypsin): ~ 1/10
inhibition of HNE activity (compared with native AAT) [1, 7]: almost as well as native AAT
inhibition of pancreatic elastase (rank order of inhibition) (Pancreatic elastase): chymotrypsin>HNE>pancreatic elastase
effect on trypsin (Trypsin): no effect
binding to DFP-treated HNE [3]: bound
binding to DFP-treated cathepsin G [4]: bound

Molecule: α1 Antitrypsin (AMFLEAIPMSIPPEVKFNKPFVFLMIEQNTKSPLFMGKVVNPTQK) [AAT]
binding to DFP-treated HNE [3]: bound
binding to DFP-treated cathepsin G [4]: bound

Molecule: MFLEAIPMSIPPQVKFNKPFVFLMIEQNTKSPLFMGKVVNPTQK [chemically synthesized SPAAT]
inhibitory effectiveness, mole-for-mole [5]: 8 fold
Ki (Chymotrypsin [6]): 7500 nM

Molecule: MFLEAIPMSIPPQVKFNKPFVFLMIEQNTKSPLFMGKVVNPTQK [SPAAT isolated from human placenta (44-residue C-terminal fragment of alpha1 antitrypsin)]
Ki (Chymotrypsin [6]): 920 nM

Continued, values first:

effectiveness as inhibitor of HNE relative to SPAAT isolated from placenta, mole-for-mole ([1]; ratio of the KI values): eight-fold less effective
Molecule: MFLEAIPMSIPPQVKFNKPFVFLMIEQNTKSPLFMGKVVNPTQK [chemically synthesized SPAAT]

Ki (Chymotrypsin [2]; chymotrypsin as the subject enzyme): 920 nM
Molecule: placental SPAAT: SPAAT isolated from human placenta, associated with collagen in the placental material (MFLEAIPMSIPPQVKFNKPFVFLMIEQNTKSPLFMGKVVNPTQK)
